# Test results: patent publication US20070141048A1 (SYMPHOGEN A S, published 2007)
# Changes are numbered by the printed parent chain.
# B1: g060a10 (Fab, V domains shown)
# VH: QITLKESGPTLVKPTQTLTLTCTLSGFSLYTTGVGVGWIRQPPGKALEWLARIYWDDDERYNPSLKSRLTITKDASKNQVVLKMTNMDPVDTATYYCARTMGVVLPFDYWGQGTLVTVS
# VL: EIVLTQSPSTLSASVGDRVTITCRASQSIGSWLAWYQQKPGKAPKLLIYKASTLQSETPSRFRGSGSGTEFTLTISSLQPDDFATYYCQQFNSFSPWTFGQGTKVEFK
# B2: g060c07 (Fab, V domains shown)
# VH: KVQLVQSGAEVKKPGESLKISCQASGYGFTVYWIGWVRQPPGKGLEWLGIIYPGDSDTRYNPSFQGQVTISADKSVSTTYLQWSSLKASDTAIYYCARHLDSYDVFTGYNLGGYMDVWGKGTLVTVS
# VL: ETTLTQSPGTLSLSPGERATLSCRASQSVSTNYLAWYRQKPGQAPRLLIHGASSRATGIPDRFSGSGSGTDFTLTISRLEPEDFAVYFCQQYGSSPQTFGQGTRLEIK
# B3: g060d11 (Fab, V domains shown)
# VH: B2 VH
# VL: B2 VL
# B4: g060g02 (Fab, V domains shown)
# VH: B2 VH with K1E, P40L, L123M
# VL: B2 VL with E1D, T2I, T3Q
# B5: g060a09 (Fab, V domains shown)
# VH: GRAQVQLQESGPEVKKPGASVKVSCKASGYTFNSYGIAWVRQVPGQGLEWMGWISPYSGHTNYAEKVQGRVTMTTDTATSTACMELTSLRSDDTAVYFCARDYSSPYHFDYWGQGTWSPSR
# VL: LADVVMTQSPSSLSASVGDRVTISCRASQPISTYLNWYQQKPGKAPKILIFGASRLQSGVPSRFSGSGSGTDFSLTITSLQPEDFATYICQQSKSPPYNFGRGTKLEIK
# B6: g060b09 (Fab, V domains shown)
# VH: QVQLQESGPTLVKPTQTLTLTCSFSGFSLGTTGVNVGWIRQPPGKALEWLALISWDGGKHYSPSLNSRITLTKDASREQVVVPTMTNMDPADTGRYYCARIVGTHGFDYWGQGTLVTVS
# VL: EIVLTQSPSFLSASVGDRVTITCRASQGIGNFLAWYQQKPGKAPKLLISGASTLQSWVPSRFSGRGSGTEFTLTISSLQPEDFATYYCQQLNRYPPYTFGQGTKLEIK
# B7: g060f10 (Fab, V domains shown)
# VH: B6 VH with Q3T, Q5K, S23T, D56G, P83L, T86A, A91V
# VL: B6 VL with L4M
# B8: g060h10 (Fab, V domains shown)
# VH: EVQLVESGAEVKKPGSSVKVSCKASGGSFSTYAITWVRQAPGQGLEWMGGIIPIFASRDYAQKFQGRVTITADESTRTVYMELSSLRSDDTAVYYCARVLGGTRLYYALNVWGQGTTVTVS
# VL: DIQLTQSPSSLSASVGDRVTITCRASQGISNFLAWYQQKPGKVPELLIYGASTLQSGVPSRFSGSGSGTEFTLTINSLQPEDVATYYCQKYDSGLRFTFGPGTKVDIK
# B9: g060g11 (Fab, V domains shown)
# VH: B8 VH with A33I, I34F, I52N, S57T, A61P, Q62K, R87T, D89E
# VL: EIVMTQSPSSLSASVGDRVTISCRASQGISNFLAWFQQKPGQVPKLLIYVASTLQSGVPSRFSGSGSGTDFSLTINGLQPEDVATYYCQRYDSGLIFTFGPGTKVEIK
# B10: g060d05 (Fab, V domains shown)
# VH: B8 VH with E1K, A24T, A33S, I52N, S57T, S84R, S85N, D89E, L100F, T117L
# VL: B9 VL with E1D, I2V, S22T, F36H, V50G, S72T, R90K, K104R
# B11: g060d04 (Fab, V domains shown)
# VH: B8 VH with E1K, I70V, T117M
# VL: B8 VL with I2V, Q3V, L4M, S7F, T69A
# B12: g060h02 (Fab, V domains shown)
# VH: B8 VH with E6Q, L83P, S84R, D89E, T117L
# VL: B8 VL with D1E, Q3V, E70D, T103A
# B13: g060a02 (Fab, V domains shown)
# VH: QVQLQQSGGGLVKPGGSLRLSCAASGFTFSSYSMNWVRQAPGKGLEWVSSISSSSSYIYYADSVKGRFTISRDNAKNSLYLQMNSLRAEDTAVYYCARRPGWAATRAAGAFDIWGQGTMVTVS
# VL: EIVLTQSPSSLSASVGDRVTITCRASQGISNYLAWYQQKPGKVPKLLIYAASTLQSGVPSRFSGSGSGTDFTLTISSLQPEDVATYYCQKYNSAPYTFGQGTKLEIK
# B14: g060f11 (Fab, V domains shown)
# VH: EVQLVQSGGGVVRPGGSLRLSCAGSGFTFDEYAMSWVRQAPGKGLEWVAFINWNGDSTYYADSVKGRFTVSRTNAKNSLYLQMNSLRAEDTAFYYCARDPRTKLGMSYFDYWGQGTLVTVS
# VL: EIVMTQSPSSLSASVGDRVTITCRASQTISNHLNWYQQKPGRAPKLLIYVGSSLQSGVPSRFSGSGSGTDFTLTISGLQPEDFATYYCQQSYSPSYTFGQGTKVEIK
# B15: g060g12 (Fab, V domains shown)
# VH: B14 VH with E46K, T73S, Y95C
# VL: B14 VL with E1D, V3Q, Q55R
# B16: g060f01 (Fab, V domains shown)
# VH: QVQLQQSGGGVVQPGRSLRLSCAASGFAFRDYAMHWVRQAPGKGLEWMGVISFNGDQIFYADSMKGRFTISRENSKNTLHLRMNSLRPEDTAVYYCARARLLFCSGGRCDMDSWGQGTLVTVS
# VL: EIVMTQSPSFLSASVGDRVTITCRASQDIITYLAWYQQKPGKAPEVLIFGASTLQSGVPSRFSGSGSGTEFTLTISSLQPEDFATYYCQQIIRYPRTFGQGTRVEIK
# B17: g060g03 (Fab, V domains shown)
# VH: EVQLVQSGPEVKKPGASVRVSCKASGYSLKNYGIHWVRQAPGQGLEWMGWISADNGDTTTALNLRGRVSMTTDTSTNTVYMEVKSLRSDDTAIYFCARDFYSGSYRSFDYWGQGTLVTVS
# VL: DVVMTQSPSSLSASLGDRVTITCRASQHISNYLNWYQQKPGKAPKLLIYAASSLQSGVPSRFTGSGSGADYTLTISSLQPEDFATYYCQQSYSTSWTFGQGTTVGIK
# B18: g060a01 (Fab, V domains shown)
# VH: B17 VH with E1Q, L29F, Y110C
# VL: B17 VL with D1E, V2I, M4L, Y49C, G105E
# B19: g060g04 (Fab, V domains shown)
# VH: EVQLVQSGPGLVKPSETLSLTCAVSGASVSGGDYYWSWIRQPPGKALEWIGYIYYIGSTNYNPSLKSRLSLSVDTAKSQFSLKLSSVTAADTAIYFCARARRTYSGYDSAFDYWGQGTLVTVS
# VL: DVVMTQSPSSLSASVGDRVSITCRASRSVKTYLNWYQQKPGKAPKLLVYGSSSLESGVPSRFSGSGSGTDFTLTISSLQPEDFATYYCQQSFGTPYTFGQGTKLDTK
# B20: g060h04 (Fab, V domains shown)
# VH: B19 VH with I94T
# VL: B19 VL with Y87C, T106I
# B21: g060a11 (Fab, V domains shown)
# VH: KVQLVESGGGLVKPGGSLRLSCVVSGFPLNRYTMNWVRQAPGKGLEWLSSISSTSSYIYYADSVKGRFTISRDNAKNSLFLQMNSLRADDTALYFCASGNTHDYWGQGTLVTVS
# VL: DVVMTQSPSSLSASVGDRVTITCRASQSININLNWFQQKPGKAPNLLIYSASTLQTGVPSRFSGSGSGTEFTLTISSLQPEDFATYYCQQIYSHVRTFGQGTKVEIK
# B22: g060c12 (Fab, V domains shown)
# VH: B21 VH with E6Q, T33I, A40T, V64A, D89E, A92G, F95Y
# VL: B21 VL with D1E, V2I, M4L, I21T, A25T, N30F, N45K, H94Q
# B23: g060f03 (Fab, V domains shown)
# VH: QVQLVQSGGGLVKPGGSLRLSCAASGFTFSNAWMSWVRQAPGKGLEWVGHVKSMTDGGTTDYAAPVKGRFTISRDDSENTLYLQMNSLKTDDTAVYYCTTHDYWGQGTLVTVS
# VL: EIVMTQSPPFLSASVGDRVTITCRASQGLSTYLAWYQVKPGKAPKLLIYAASTLQSGVPSRFSGSGSGTEFTLTINSLQPEDFATYYCQQLDTYPLTLGGGTKVEIK
# B24: g060f09 (Fab, V domains shown)
# VH: EVQLVQSGAEVKKPGSSVKVSCKTEGGTFSTYVISWMRQAPGQGLEWMGGIVPIFNTPNYAQKFQGRVTITADRSTSTAYMELRSLGSEDTAVYYCARVVGGTRSYYALGFWGQGTTVTVS
# VL: DIQLTQSPSSLSASVGDSVTITCRASQGISNFLAWYQKKPGKVPRLLIYGASTLQSGVPSRFSGSGSGTDFTLTISSLQPEDVATYYCQEYSNALIFTFGPGTKVHIK
# Biological target: T1, Ovalbumin (UniProt P01012 2-386)
# T1 sequence: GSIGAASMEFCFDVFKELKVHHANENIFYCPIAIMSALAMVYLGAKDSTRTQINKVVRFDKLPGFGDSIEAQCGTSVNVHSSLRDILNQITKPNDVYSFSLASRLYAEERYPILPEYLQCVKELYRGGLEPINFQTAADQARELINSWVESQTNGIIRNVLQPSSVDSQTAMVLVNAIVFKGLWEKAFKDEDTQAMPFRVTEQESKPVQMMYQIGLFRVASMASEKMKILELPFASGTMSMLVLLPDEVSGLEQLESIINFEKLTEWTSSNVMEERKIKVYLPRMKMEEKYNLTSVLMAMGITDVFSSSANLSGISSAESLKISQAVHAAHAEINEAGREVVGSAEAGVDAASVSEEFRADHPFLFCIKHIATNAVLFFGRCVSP
# Assay: ELISA, periplasmic extract on coated Ovalbumin
row,Binder,binding result
1,B1,no binding (tested: 10 µg/ml Ovalbumin coat)
2,B2,no binding (tested: 10 µg/ml Ovalbumin coat)
3,B3,no binding (tested: 10 µg/ml Ovalbumin coat)
4,B4,no binding (tested: 10 µg/ml Ovalbumin coat)
5,B5,no binding (tested: 10 µg/ml Ovalbumin coat)
6,B6,no binding (tested: 10 µg/ml Ovalbumin coat)
7,B7,no binding (tested: 10 µg/ml Ovalbumin coat)
8,B8,no binding (tested: 10 µg/ml Ovalbumin coat)
9,B9,no binding (tested: 10 µg/ml Ovalbumin coat)
10,B10,no binding (tested: 10 µg/ml Ovalbumin coat)
11,B11,no binding (tested: 10 µg/ml Ovalbumin coat)
12,B12,no binding (tested: 10 µg/ml Ovalbumin coat)
13,B13,no binding (tested: 10 µg/ml Ovalbumin coat)
14,B14,no binding (tested: 10 µg/ml Ovalbumin coat)
15,B15,no binding (tested: 10 µg/ml Ovalbumin coat)
16,B16,no binding (tested: 10 µg/ml Ovalbumin coat)
17,B17,no binding (tested: 10 µg/ml Ovalbumin coat)
18,B18,no binding (tested: 10 µg/ml Ovalbumin coat)
19,B19,no binding (tested: 10 µg/ml Ovalbumin coat)
20,B20,no binding (tested: 10 µg/ml Ovalbumin coat)
21,B21,no binding (tested: 10 µg/ml Ovalbumin coat)
22,B22,no binding (tested: 10 µg/ml Ovalbumin coat)
23,B23,no binding (tested: 10 µg/ml Ovalbumin coat)
24,B24,no binding (tested: 10 µg/ml Ovalbumin coat)
